Measurements as given in patent US20140087995A1 (published 2014).
Numbered stars: 1 amine (or outer) side, 2 acyl side, 3 side chain; on linkers, the order of the positions; unused ones are H or OH. Bridge positions count the residues as written; N and C are the ends. Side chains are listed from the residue outwards. Ends that are not written are not given here. * marks the point of attachment. C20 diacid = O=C(O)CCCCCCCCCCCCCCCCCCC(=O)*; γGlu = O=C(O)[C@H](CCC(=O)[*:2])N[*:1]

T1: human amylin receptor (amylin 3(a) receptor: human calcitonin receptor co-expressed with RAMP-3) (human, UniProt P30988 25-474; O60896 24-148)
T1 construct: whole, on cells; functional assay (Assay IIa) used the whole cells; also called hAmylin-R; hAmylinR
T1 sequence (looked up) 1: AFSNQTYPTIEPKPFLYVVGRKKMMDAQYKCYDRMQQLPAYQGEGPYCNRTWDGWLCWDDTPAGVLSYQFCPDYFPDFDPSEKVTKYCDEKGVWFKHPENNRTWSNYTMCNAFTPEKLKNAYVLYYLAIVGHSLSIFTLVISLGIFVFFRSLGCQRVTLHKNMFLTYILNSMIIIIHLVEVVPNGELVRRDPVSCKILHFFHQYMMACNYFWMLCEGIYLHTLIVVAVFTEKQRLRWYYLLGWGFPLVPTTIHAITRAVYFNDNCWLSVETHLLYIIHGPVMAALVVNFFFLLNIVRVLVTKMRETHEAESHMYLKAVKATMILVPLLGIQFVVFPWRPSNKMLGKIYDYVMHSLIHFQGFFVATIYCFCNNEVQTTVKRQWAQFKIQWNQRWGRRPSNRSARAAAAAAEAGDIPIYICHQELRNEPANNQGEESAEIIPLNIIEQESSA
T1 sequence (looked up) 2: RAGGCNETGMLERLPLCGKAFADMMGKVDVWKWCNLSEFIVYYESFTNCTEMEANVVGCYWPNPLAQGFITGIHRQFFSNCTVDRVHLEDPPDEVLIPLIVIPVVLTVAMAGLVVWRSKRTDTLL

T2: human amylin receptor (amylin 3(a) receptor: human calcitonin receptor plus RAMP-3) (human, UniProt P30988 25-474; O60896 24-148, limits assumed)
T2 sequence (looked up) 1: T1 sequence (looked up) 1
T2 sequence (looked up) 2: T1 sequence (looked up) 2

T3: human calcitonin receptor (human, UniProt P30988 25-474)
T3 sequence (looked up): T1 sequence (looked up) 1

T4: human calcitonin receptor (human, UniProt P30988 25-474)
T4 sequence (looked up): T1 sequence (looked up) 1

B1: N^ε1-[(4S)-4-carboxy-4-[[(4S)-4-carboxy-4-(19-carboxynonadecanoylamino)butanoyl]amino]butanoyl]-[Glu14,Arg17,Pro21,Pro27,Pro34,Glu35,Pro37]-h-amylin (peptide)
peptide: K([γGlu-γGlu-C20 diacid])CNTATCATQRLAEFLRHSSPNFGAIPSSTNVGPETP-NH2
modifications: disulfide 2-7 (inferred)
notes: Synthetic acylated analogue of human amylin
B2: N^ε1-[(4S)-4-carboxy-4-(19-carboxynonadecanoylamino)butanoyl]-[Glu14,Arg17,Pro21,Pro27,His35]-h-amylin (peptide)
peptide: K([γGlu-C20 diacid])CNTATCATQRLAEFLRHSSPNFGAIPSSTNVGSHTY-NH2
modifications: disulfide 2-7 (inferred)
notes: as for B1
B3: N^ε1-[(4S)-4-carboxy-4-[[(4S)-4-carboxy-4-(19-carboxynonadecanoylamino)butanoyl]amino]butanoyl]-[Glu14,Arg17,Pro21,Pro27,Pro34,Phe37]-h-amylin (peptide)
peptide: K([γGlu-γGlu-C20 diacid])CNTATCATQRLAEFLRHSSPNFGAIPSSTNVGPNTF-NH2
modifications: disulfide 2-7 (inferred)
notes: as for B1
B4: N^α1-[(4S)-4-carboxy-4-(19-carboxynonadecanoylamino)butanoyl]-[Arg17,Pro21,Pro27,Pro34,Glu35]-h-amylin (peptide)
peptide: {C20 diacid-γGlu}-KCNTATCATQRLANFLRHSSPNFGAIPSSTNVGPETY-NH2
modifications: disulfide 2-7
SMILES: CC[C@H](C)[C@H](NC(=O)[C@H](C)NC(=O)CNC(=O)[C@H](Cc1ccccc1)NC(=O)[C@H](CC(N)=O)NC(=O)[C@@H]1CCCN1C(=O)[C@H](CO)NC(=O)[C@H](CO)NC(=O)[C@H](Cc1c[nH]cn1)NC(=O)[C@H](CCCNC(=N)N)NC(=O)[C@H](CC(C)C)NC(=O)[C@H](Cc1ccccc1)NC(=O)[C@H](CC(N)=O)NC(=O)[C@H](C)NC(=O)[C@H](CC(C)C)NC(=O)[C@H](CCCNC(=N)N)NC(=O)[C@H](CCC(N)=O)NC(=O)[C@@H](NC(=O)[C@H](C)NC(=O)[C@@H]1CSSC[C@H](NC(=O)[C@H](CCCCN)NC(=O)CC[C@H](NC(=O)CCCCCCCCCCCCCCCCCCC(=O)O)C(=O)O)C(=O)N[C@@H](CC(N)=O)C(=O)N[C@@H]([C@@H](C)O)C(=O)N[C@@H](C)C(=O)N[C@@H]([C@@H](C)O)C(=O)N1)[C@@H](C)O)C(=O)N1CCC[C@H]1C(=O)N[C@@H](CO)C(=O)N[C@@H](CO)C(=O)N[C@H](C(=O)N[C@@H](CC(N)=O)C(=O)N[C@H](C(=O)NCC(=O)N1CCC[C@H]1C(=O)N[C@@H](CCC(=O)O)C(=O)N[C@H](C(=O)N[C@@H](Cc1ccc(O)cc1)C(N)=O)[C@@H](C)O)C(C)C)[C@@H](C)O
notes: Synthetic acylated analogue of human amylin; also called compound 29
B5: N^α1-[(4S)-4-carboxy-4-(19-carboxynonadecanoylamino)butanoyl]-[Glu14,Arg17,Pro21,Pro27,Pro34]-h-amylin (peptide)
peptide: {C20 diacid-γGlu}-KCNTATCATQRLAEFLRHSSPNFGAIPSSTNVGPNTY-NH2
modifications: disulfide 2-7
SMILES: CC[C@H](C)[C@H](NC(=O)[C@H](C)NC(=O)CNC(=O)[C@H](Cc1ccccc1)NC(=O)[C@H](CC(N)=O)NC(=O)[C@@H]1CCCN1C(=O)[C@H](CO)NC(=O)[C@H](CO)NC(=O)[C@H](Cc1c[nH]cn1)NC(=O)[C@H](CCCNC(=N)N)NC(=O)[C@H](CC(C)C)NC(=O)[C@H](Cc1ccccc1)NC(=O)[C@H](CCC(=O)O)NC(=O)[C@H](C)NC(=O)[C@H](CC(C)C)NC(=O)[C@H](CCCNC(=N)N)NC(=O)[C@H](CCC(N)=O)NC(=O)[C@@H](NC(=O)[C@H](C)NC(=O)[C@@H]1CSSC[C@H](NC(=O)[C@H](CCCCN)NC(=O)CC[C@H](NC(=O)CCCCCCCCCCCCCCCCCCC(=O)O)C(=O)O)C(=O)N[C@@H](CC(N)=O)C(=O)N[C@@H]([C@@H](C)O)C(=O)N[C@@H](C)C(=O)N[C@@H]([C@@H](C)O)C(=O)N1)[C@@H](C)O)C(=O)N1CCC[C@H]1C(=O)N[C@@H](CO)C(=O)N[C@@H](CO)C(=O)N[C@H](C(=O)N[C@@H](CC(N)=O)C(=O)N[C@H](C(=O)NCC(=O)N1CCC[C@H]1C(=O)N[C@@H](CC(N)=O)C(=O)N[C@H](C(=O)N[C@@H](Cc1ccc(O)cc1)C(N)=O)[C@@H](C)O)C(C)C)[C@@H](C)O
notes: Synthetic acylated analogue of human amylin; also called compound 32
B6: N^α1-[(4S)-4-carboxy-4-(19-carboxynonadecanoylamino)butanoyl]-[Glu14,Arg17,Pro21,Pro27,His34]-h-amylin (peptide)
peptide: {C20 diacid-γGlu}-KCNTATCATQRLAEFLRHSSPNFGAIPSSTNVGHNTY-NH2
modifications: disulfide 2-7
SMILES: CC[C@H](C)[C@H](NC(=O)[C@H](C)NC(=O)CNC(=O)[C@H](Cc1ccccc1)NC(=O)[C@H](CC(N)=O)NC(=O)[C@@H]1CCCN1C(=O)[C@H](CO)NC(=O)[C@H](CO)NC(=O)[C@H](Cc1c[nH]cn1)NC(=O)[C@H](CCCNC(=N)N)NC(=O)[C@H](CC(C)C)NC(=O)[C@H](Cc1ccccc1)NC(=O)[C@H](CCC(=O)O)NC(=O)[C@H](C)NC(=O)[C@H](CC(C)C)NC(=O)[C@H](CCCNC(=N)N)NC(=O)[C@H](CCC(N)=O)NC(=O)[C@@H](NC(=O)[C@H](C)NC(=O)[C@@H]1CSSC[C@H](NC(=O)[C@H](CCCCN)NC(=O)CC[C@H](NC(=O)CCCCCCCCCCCCCCCCCCC(=O)O)C(=O)O)C(=O)N[C@@H](CC(N)=O)C(=O)N[C@@H]([C@@H](C)O)C(=O)N[C@@H](C)C(=O)N[C@@H]([C@@H](C)O)C(=O)N1)[C@@H](C)O)C(=O)N1CCC[C@H]1C(=O)N[C@@H](CO)C(=O)N[C@@H](CO)C(=O)N[C@H](C(=O)N[C@@H](CC(N)=O)C(=O)N[C@H](C(=O)NCC(=O)N[C@@H](Cc1c[nH]cn1)C(=O)N[C@@H](CC(N)=O)C(=O)N[C@H](C(=O)N[C@@H](Cc1ccc(O)cc1)C(N)=O)[C@@H](C)O)C(C)C)[C@@H](C)O
notes: Synthetic acylated analogue of human amylin; also called compound 17
B7: N^α1-[(4S)-4-carboxy-4-[[(4S)-4-carboxy-4-(19-carboxynonadecanoylamino)butanoyl]amino]butanoyl]-[Glu14,Arg17,Pro21,Pro27]-h-amylin (peptide)
peptide: {C20 diacid-γGlu-γGlu}-KCNTATCATQRLAEFLRHSSPNFGAIPSSTNVGSNTY-NH2
modifications: disulfide 2-7
SMILES: CC[C@H](C)[C@H](NC(=O)[C@H](C)NC(=O)CNC(=O)[C@H](Cc1ccccc1)NC(=O)[C@H](CC(N)=O)NC(=O)[C@@H]1CCCN1C(=O)[C@H](CO)NC(=O)[C@H](CO)NC(=O)[C@H](Cc1c[nH]cn1)NC(=O)[C@H](CCCNC(=N)N)NC(=O)[C@H](CC(C)C)NC(=O)[C@H](Cc1ccccc1)NC(=O)[C@H](CCC(=O)O)NC(=O)[C@H](C)NC(=O)[C@H](CC(C)C)NC(=O)[C@H](CCCNC(=N)N)NC(=O)[C@H](CCC(N)=O)NC(=O)[C@@H](NC(=O)[C@H](C)NC(=O)[C@@H]1CSSC[C@H](NC(=O)[C@H](CCCCN)NC(=O)CC[C@H](NC(=O)CC[C@H](NC(=O)CCCCCCCCCCCCCCCCCCC(=O)O)C(=O)O)C(=O)O)C(=O)N[C@@H](CC(N)=O)C(=O)N[C@@H]([C@@H](C)O)C(=O)N[C@@H](C)C(=O)N[C@@H]([C@@H](C)O)C(=O)N1)[C@@H](C)O)C(=O)N1CCC[C@H]1C(=O)N[C@@H](CO)C(=O)N[C@@H](CO)C(=O)N[C@H](C(=O)N[C@@H](CC(N)=O)C(=O)N[C@H](C(=O)NCC(=O)N[C@@H](CO)C(=O)N[C@@H](CC(N)=O)C(=O)N[C@H](C(=O)N[C@@H](Cc1ccc(O)cc1)C(N)=O)[C@@H](C)O)C(C)C)[C@@H](C)O
notes: Synthetic acylated analogue of human amylin; also called compound 15

target: T1, human amylin receptor (amylin 3(a) …); assay: SPA competition binding, membranes of Amylin 3(a)/CRE-luc BHK cells, displacement of 125I-rat amylin (Assay V)
How it was run: (§1)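 SPA beads + BHK amylin 3(a)/CRE-luc membranes, 35 ng/μL final; buffer 50 mM Hepes pH 7.4, 1 mM CaCl2, 5 mM MgCl₂, 0.1% OA, 0.02% Tween20. 120 min, 25° C, shaken; scintillation count. IC₅₀ by one-site binding competition fit, taken as receptor affinity.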

| Binder | IC50 |
| --- | --- |
| B1 | 0.533 nM |
| B2 | 0.992 nM |
| B3 | 0.152 nM |

target: T2, human amylin receptor (amylin 3(a) …); assay: cell-based or functional assay

| Binder | Ratio hCT/hAmylin funct. | hAmylin-R funct. EC50 |
| --- | --- | --- |
| B4 | 8.7 ratio | 99 pM |
| B5 | 6.6 ratio | 50 pM |
| B6 | 8.8 ratio | 268 pM |
| B7 | 8.9 ratio | 386 pM |

target: T3, human calcitonin receptor; assay: cell-based or functional assay

| Binder | hCTR funct. EC50 |
| --- | --- |
| B4 | 857 pM |
| B5 | 327 pM |
| B6 | 2350 pM |
| B7 | 3430 pM |

target: T2, human amylin receptor (amylin 3(a) …); assay: SPA competition binding, displacement of 125I-rat amylin from membranes of BHK cells with human calcitonin receptor + RAMP-3 (Assay V)
How it was run: as §1

| Binder | IC50 |
| --- | --- |
| B4 | 0.577 nM |
| B5 | 0.1 nM |
| B6 | 0.878 nM |
| B7 | 0.597 nM |

target: T1, human amylin receptor (amylin 3(a) …); assay: cell-based or functional assay

| Binder | hAmylin-R funct. EC50 (pM), CRE-luciferase reporter in BHK amylin 3(a) receptor cells |
| --- | --- |
| B1 | 132 pM |
| B2 | 425 pM |
| B3 | 216 pM |

target: T4, human calcitonin receptor; assay: cell-based or functional assay

| Binder | Ratio hCT/hAmylin funct. (hCTR EC50 against hAmylin-R EC50) | hCTR funct. EC50 (pM), CRE-luciferase reporter in BHK calcitonin (a) receptor cells |
| --- | --- | --- |
| B1 | 0.8 | 102 pM |
| B2 | 13.1 | 5580 pM |
| B3 | 9.9 | 2140 pM |
